In US20240350646A1, “METHODS AND COMPOSITIONS FOR DELIVERY TO AND ACROSS THE BLOOD BRAIN BARRIER” (NUtech Ventures, priority 2021, published 2024):

T1: human claudin-3 (Homo sapiens, UniProt O15551)
T1 sequence (O15551 1-220): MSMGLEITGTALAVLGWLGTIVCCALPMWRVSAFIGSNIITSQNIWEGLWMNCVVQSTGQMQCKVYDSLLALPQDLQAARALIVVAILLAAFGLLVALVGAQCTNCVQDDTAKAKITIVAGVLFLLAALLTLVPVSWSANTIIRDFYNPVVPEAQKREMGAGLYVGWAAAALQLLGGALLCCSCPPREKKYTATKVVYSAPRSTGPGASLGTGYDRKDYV

T2: human claudin-4 (Homo sapiens, UniProt O14493)
T2 sequence (O14493 1-209): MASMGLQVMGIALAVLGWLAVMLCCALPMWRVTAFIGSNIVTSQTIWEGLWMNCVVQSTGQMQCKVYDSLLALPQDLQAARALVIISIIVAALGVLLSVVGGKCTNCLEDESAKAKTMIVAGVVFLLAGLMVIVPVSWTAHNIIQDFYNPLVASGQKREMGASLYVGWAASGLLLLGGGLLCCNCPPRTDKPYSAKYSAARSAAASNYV

T3: human claudin-9 (Homo sapiens, UniProt O95484)
T3 sequence (O95484 1-217): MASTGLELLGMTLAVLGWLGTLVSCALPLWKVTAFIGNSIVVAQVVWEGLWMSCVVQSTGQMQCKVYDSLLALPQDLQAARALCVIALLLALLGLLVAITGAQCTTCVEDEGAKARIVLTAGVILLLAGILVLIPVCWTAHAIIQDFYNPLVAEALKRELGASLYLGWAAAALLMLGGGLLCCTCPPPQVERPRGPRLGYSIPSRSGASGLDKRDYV

T4: recombinant human claudin-1 (human, UniProt O95832 1-211, limits assumed)
T4 construct: Expressed and purified as in Vecchio & Stroud 2019, in beta-DDM detergent; also called CLDN1
T4 sequence: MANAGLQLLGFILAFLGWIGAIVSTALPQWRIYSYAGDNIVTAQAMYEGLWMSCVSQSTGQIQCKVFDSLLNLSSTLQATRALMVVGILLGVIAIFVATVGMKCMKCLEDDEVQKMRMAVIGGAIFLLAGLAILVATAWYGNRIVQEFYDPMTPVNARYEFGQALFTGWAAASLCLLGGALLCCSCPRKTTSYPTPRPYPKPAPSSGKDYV

B1: C1C2-NP (C1C2 peptide conjugated to PEG diacid coated ultrasmall Gd nanoparticles) (peptide)
peptide: Ac-SSVSQSTGQIQSKVDSLLNLNSTQATR-NH2
modifications: not fully specified; also: conjugated by EDC-NHS chemistry to PEG diacid on Gd oxide nanoparticle surface (19 peptides per 3.5 nm particle)
notes: The protein part is the C1C2 peptide; the core is not a protein; also called C1C2-NPs; C1C2 NPs

How the values were obtained:
[1] = biological target: T1, human claudin-3; assay: Microscale thermophoresis (MST) binding; settings: 0.1% beta-UDM buffer
Method: (§1) Human claudin-1 was expressed and purified as reported previously (Vecchio & Stroud, 2019, PNAS USA, 116:17817-24). MST measurements were performed using a Monolith instrument (NanoTemper Technologies). For experiments with human claudin-1, the assay buffer contained 10 mM Tris HCl, pH 8.0, 100 mM NaCl, 4% glycerol, and 0.04% n-Dodecyl-β-D-Maltopyranoside (β-DDM). NPs and peptides were labeled with AF647 prior to MST analysis as described above. For the binding experiments, the concentration of human claudin-1 was varied from 2.2-73,500 nM and the AF647-labeled C1C2-NP was fixed at 70 nM, while the AF647 labeled NPs and AF647 labeled C1C2 peptide were fixed at 1 and 0.3 μM, respectively. Binding of the AF647 labeled C1C2-NP to human claudin-3, -4, and -9 were tested using 0.4-14000 nM, 0.8-28000 nM, and 0.6-20000 nM, respectively; with the AF647 labeled C1C2-NP fixed at 70 nM. This assay buffer was similar, except β-DDM was replaced with 0.1% n-Undecyl-β-D-Maltopyranoside (beta-UDM). In order to check non-specific binding of β-DDM micelles to the AF647 labeled C1C2-NP, the concentration of beta-DDM was varied from 0.03-900 μM and the concentration of the AF647-labeled C1C2-NP was fixed at 1 μM. A similar experiment was performed wherein the concentration of beta-UDM was varied from 0.3-10,000 μM and the concentration of AF647-labeled control NP was fixed at 1 μM. The non-specific binding of human claudins 4 and 9 to the NP was examined by varying the concentrations of human claudins 4 and 9 from 0.7-20,100 nM and 0.8-31,100 nM, respectively. The human claudin sub-dilutions were mixed with the NPs or peptides and loaded in standard monolith NT.115 capillary tubes for measurement. All experiments were conducted at 23° C. using the nano-red channel of the Monolith instrument and the data were analyzed by using either Monolith analysis software or Graph Pad Prism, version 9 (Graph Pad Software, San Diego, California).

[2] = biological target: T2, human claudin-4; assay: Microscale thermophoresis (MST) binding; settings: 0.1% beta-UDM buffer
Method: as §1

[3] = biological target: T3, human claudin-9; assay: Microscale thermophoresis (MST) binding; settings: 0.1% beta-UDM buffer
Method: as §1

[4] = MST check of non-specific binding to detergent micelles; settings: NP fixed at 1 μM, β-DDM varied; data not shown
Method: as §1, with “In order to check non-specific binding of β-DDM micelles to the AF647 labeled C1C2-NP, the concentration of beta-DDM was varied from 0.03-900 μM and the concentration of the AF647-labeled C1C2-NP was fixed at 1 μM. A similar experiment was performed wherein the concentration of beta-UDM was varied from 0.3-10,000 μM and the concentration of AF647-labeled control NP was fixed at 1 μM. The non-specific binding of human claudins 4 and 9 to the NP was examined by varying the concentrations of human claudins 4 and 9 from 0.7-20,100 nM and 0.8-31,100 nM, respectively. The human claudin sub-dilutions were mixed with the NPs or peptides and loaded in standard monolith NT.115 capillary tubes for measurement.” left out

[5] = biological target: T4, recombinant human claudin-1; assay: microscale thermophoresis, AF647 labeled C1C2-NP fixed at 70 nM, human claudin-1 titrated 2.2-73,500 nM
Method: For the binding experiments, the concentration of human claudin-1 was varied from 2.2-73,500 nM and the AF647-labeled C1C2-NP was fixed at 70 nM, while the AF647 labeled NPs and AF647 labeled C1C2 peptide were fixed at 1 and 0.3 μM, respectively. Binding of the AF647 labeled C1C2-NP to human claudin-3, -4, and -9 were tested using 0.4-14000 nM, 0.8-28000 nM, and 0.6-20000 nM, respectively; with the AF647 labeled C1C2-NP fixed at 70 nM. This assay buffer was similar, except β-DDM was replaced with 0.1% n-Undecyl-β-D-Maltopyranoside (beta-UDM). In order to check non-specific binding of β-DDM micelles to the AF647 labeled C1C2-NP, the concentration of beta-DDM was varied from 0.03-900 μM and the concentration of the AF647-labeled C1C2-NP was fixed at 1 μM. A similar experiment was performed wherein the concentration of beta-UDM was varied from 0.3-10,000 μM and the concentration of AF647-labeled control NP was fixed at 1 μM. […] All experiments were conducted at 23° C. using the nano-red channel of the Monolith instrument and the data were analyzed by using either Monolith analysis software or Graph Pad Prism, version 9 (Graph Pad Software, San Diego, California).
To assess the binding affinity of C1C2-NPs to human claudin-1, C1C2-NPs were labeled with AF647 and binding to recombinant human claudin-1 quantified using MST. […]

Row | Molecule | Binding to human claudin 3 (in words) ([1]; listed as AF647-C1C2-NP) | Binding to human claudin 3 (in words) ([1]; listed as C1C2-NPs) | Binding to human claudin 4 (in words) ([2]; listed as AF647-C1C2-NP) | Binding to human claudin 4 (in words) ([2]; listed as C1C2-NPs) | Binding to human claudin 9 (in words) ([3]; listed as AF647-C1C2-NP) | Binding to human claudin 9 (in words) ([3]; listed as C1C2-NPs) | Non-specific binding to β-DDM micelle [4] | Kd [5] [µM]
1 | C1C2-NP: PEG diacid coated ultrasmall Gd NP conjugated with C1C2 peptide SSVSQSTGQIQSKVDSLLNLNSTQATR (SEQ ID NO: 6); claudin-1 targeted (Ac-SSVSQSTGQIQSKVDSLLNLNSTQATR-NH2; also: conjugated to PEG diacid coated ultrasmall Gd nanoparticle) | does not show any binding | undefined 95% confidence intervals | weak | undefined 95% confidence intervals | weak | the data did not fit | No significant binding | –
2 | B1 | – | – | – | – | – | – | – | 21
